Test results from article doi:10.1101/2020.11.15.382044.

Assays:
[1] = biological target: SARS-CoV-2 Spike trimer (Wuhan), design Spike_ΔCter_ΔFurin_2P_T4_His (SARS-CoV-2 | bacteriophage T4) (UniProt P0DTC2); test: SEC
[2] = biological target: SARS-CoV-2 Spike trimer (Wuhan), design Spike_ΔCter_ΔFurin_2P_T4_His (SARS-CoV-2 | bacteriophage T4) (UniProt P0DTC2); test: negative-stain electron microscopy
[3] = biological target: SARS-CoV-2 D614G mutant S trimer (design Spike_ΔCter_ΔFurin_2P_T4_His with D614G) (SARS-CoV-2 | bacteriophage T4) (UniProt P0DTC2); test: negative-stain electron microscopy

Substance | stoichiometry N [1] | stoichiometry N [2] | stoichiometry N [3]
SARS-CoV-2 Spike trimer (Wuhan), design Spike_ΔCter_ΔFurin_2P_T4_His (from UniProt P0DTC2 14-1213) (complex) | 3 | 3 | 
SARS-CoV-2 D614G mutant S trimer (design Spike_ΔCter_ΔFurin_2P_T4_His with D614G) (from UniProt P0DTC2 14-1213) (complex) |  |  | 3
